In US20260250420A1 (SICHUAN KELUN BIOTECH BIOPHARMACEUTICAL, published 2026) one finds EC50 data, which are given here for nine molecules.

Substitutions are numbered along the chain they refer to.

First the molecules themselves.
T1: human PTK7 protein (extracellular sequence of human PTK7 with C-terminal 6×His tag) (human, UniProt Q13308 31-704)
T1 construct: extracellular domain; Expressed transiently in HEK293 cells; also called human PTK7-His; human PTK7-His protein
T1 sequence: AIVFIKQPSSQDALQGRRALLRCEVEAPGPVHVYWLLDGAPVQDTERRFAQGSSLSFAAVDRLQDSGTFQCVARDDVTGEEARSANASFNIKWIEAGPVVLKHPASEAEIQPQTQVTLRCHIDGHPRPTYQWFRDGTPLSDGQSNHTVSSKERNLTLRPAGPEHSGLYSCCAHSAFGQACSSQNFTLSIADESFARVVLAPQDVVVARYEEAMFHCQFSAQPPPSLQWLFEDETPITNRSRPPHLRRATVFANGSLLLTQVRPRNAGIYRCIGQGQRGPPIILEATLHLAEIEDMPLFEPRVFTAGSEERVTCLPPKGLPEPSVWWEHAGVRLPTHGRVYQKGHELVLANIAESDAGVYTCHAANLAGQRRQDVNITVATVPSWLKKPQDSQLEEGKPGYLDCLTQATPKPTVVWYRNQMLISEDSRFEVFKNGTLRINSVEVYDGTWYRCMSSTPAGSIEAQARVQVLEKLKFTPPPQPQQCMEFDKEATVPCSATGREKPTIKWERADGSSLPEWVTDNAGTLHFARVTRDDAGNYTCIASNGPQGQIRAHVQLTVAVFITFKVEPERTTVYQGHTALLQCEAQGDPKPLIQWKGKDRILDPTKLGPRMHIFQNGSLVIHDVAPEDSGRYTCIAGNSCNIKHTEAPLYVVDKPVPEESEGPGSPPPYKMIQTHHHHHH

T2: human PTK7 on cells (tumor cells endogenously expressing PTK7); CHO-hPTK7, CHO-S-hPTK7 and 293T-hPTK7 … (human, UniProt Q13308 31-1070)
T2 construct: whole, on cells; The cell line of each value is named under assay; also called H1299; H358
T2 sequence (looked up): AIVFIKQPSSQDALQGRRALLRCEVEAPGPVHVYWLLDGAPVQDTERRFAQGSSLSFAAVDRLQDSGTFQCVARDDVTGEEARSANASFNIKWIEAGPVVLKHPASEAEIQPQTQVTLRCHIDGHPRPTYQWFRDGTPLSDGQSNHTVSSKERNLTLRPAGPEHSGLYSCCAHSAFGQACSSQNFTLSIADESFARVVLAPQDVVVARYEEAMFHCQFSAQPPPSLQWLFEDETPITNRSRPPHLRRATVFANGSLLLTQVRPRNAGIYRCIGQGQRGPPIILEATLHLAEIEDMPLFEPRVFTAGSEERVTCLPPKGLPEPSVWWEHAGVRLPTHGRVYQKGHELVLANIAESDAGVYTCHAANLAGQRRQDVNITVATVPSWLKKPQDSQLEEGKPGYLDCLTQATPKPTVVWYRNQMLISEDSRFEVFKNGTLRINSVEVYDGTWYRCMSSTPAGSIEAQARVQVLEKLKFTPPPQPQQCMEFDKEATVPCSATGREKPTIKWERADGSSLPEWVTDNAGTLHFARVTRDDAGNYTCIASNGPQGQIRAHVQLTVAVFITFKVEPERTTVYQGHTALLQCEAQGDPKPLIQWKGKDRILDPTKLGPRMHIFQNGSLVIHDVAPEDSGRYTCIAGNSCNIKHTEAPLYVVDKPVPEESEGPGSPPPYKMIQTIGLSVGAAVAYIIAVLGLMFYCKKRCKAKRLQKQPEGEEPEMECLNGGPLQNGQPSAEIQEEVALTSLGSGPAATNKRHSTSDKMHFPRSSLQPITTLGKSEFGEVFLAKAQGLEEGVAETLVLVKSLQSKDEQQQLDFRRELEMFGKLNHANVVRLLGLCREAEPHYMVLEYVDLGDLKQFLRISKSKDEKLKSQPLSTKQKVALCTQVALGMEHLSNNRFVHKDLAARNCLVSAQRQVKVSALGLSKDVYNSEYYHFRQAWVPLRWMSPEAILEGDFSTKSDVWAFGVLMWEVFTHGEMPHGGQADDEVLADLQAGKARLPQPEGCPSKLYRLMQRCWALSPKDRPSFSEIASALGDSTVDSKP

T3: monkey PTK7 protein (extracellular sequence of monkey PTK7 with C-terminal 6×His tag) (monkey)
T3 chain: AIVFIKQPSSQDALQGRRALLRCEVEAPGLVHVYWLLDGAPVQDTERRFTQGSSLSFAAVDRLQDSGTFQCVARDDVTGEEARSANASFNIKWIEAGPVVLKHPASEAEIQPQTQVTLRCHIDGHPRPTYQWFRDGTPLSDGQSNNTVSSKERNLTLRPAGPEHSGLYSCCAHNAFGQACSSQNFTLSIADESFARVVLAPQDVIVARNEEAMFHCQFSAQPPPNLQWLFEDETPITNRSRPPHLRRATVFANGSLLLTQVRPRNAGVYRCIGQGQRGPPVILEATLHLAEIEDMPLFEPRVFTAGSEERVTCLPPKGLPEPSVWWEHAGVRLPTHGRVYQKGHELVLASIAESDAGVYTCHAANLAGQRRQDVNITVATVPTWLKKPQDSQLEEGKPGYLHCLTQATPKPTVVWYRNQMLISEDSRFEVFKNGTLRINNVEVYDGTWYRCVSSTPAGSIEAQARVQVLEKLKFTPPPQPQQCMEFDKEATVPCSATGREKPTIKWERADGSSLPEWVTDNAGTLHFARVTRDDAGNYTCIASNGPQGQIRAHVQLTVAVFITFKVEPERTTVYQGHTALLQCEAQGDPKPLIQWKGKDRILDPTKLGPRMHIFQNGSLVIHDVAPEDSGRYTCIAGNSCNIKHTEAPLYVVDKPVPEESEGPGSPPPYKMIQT

B1: 101A6-CH (anti-human PTK7 chimeric antibody of 101A6) (antibody, human IgG1, kappa, V domains shown)
VH: EVKLVESGGGLVQPGGSLSLSCAASGFTFTDYYLSWVRQPPGKALEWLALIRNKANGYTTEYSASVKGRFTISRDSSQSILYLQMDALRAEDSATYYCARDTLAAYWGQGTSVTVSS
VL: DIVMTQSHKFMSTSVGDRVSFTCKASQDVGSAVIWYQQKPGQSPKLLIYWASTRHTGVPDRFTGSGSGTDFTLTISNVQSEDLADYFCQQYSSYPLTFGAGTKLEIKR
notes: The label '-CH' is not defined in words
B2: 64A10-CH (anti-human PTK7 chimeric antibody of 64A10) (antibody, human IgG1, kappa, V domains shown)
VH: QVQLKESGPVLVAPSQSLSITCTVSGFSLTSYGVYWVRQPPGKGPEWLGVIWTSGNTNYNSALMSRLSISKDNSKSQVFLKMNSLQTDDTAMYYCVKHDGGNYVGVMNYWGQGTSVTVSS
VL: DIQMTQSPATLSVTPGDRVSLSCRASQSISDYLHWYQQKSQESPRLLIKYASQSISGIPSRFSGSGSGSDFTLSINSVEPEDVGVYYCQNGHSFPPTFGGGTKLEIKR
notes: as for B1
B3: 101A6 (anti-human PTK7 murine antibody) (antibody, V domains shown)
VH: B1 VH
VL: DIVMTQSHKFMSTSVGDRVSFTCKASQDVGSAVIWYQQKPGQSPKLLIYWASTRHTGVPDRFTGSGSGTDFTLTISNVQSEDLADYFCQQYSSYPLTFGAGTKLEIK
notes: Murine antibody purified from hybridoma supernatant on Protein A
B4: 8H3 (anti-human PTK7 murine antibody) (antibody, V domains shown)
VH: B1 VH with L34M, S76N, D86N, T102S, L103F, A104E, A105V, S112L, S117A
VL: B3 VL with M4L, S20N, F21I, S31T, I34A, S76R, Y91F, Y94F, L96F, A100G
notes: as for B3
B5: 57F4 (anti-human PTK7 murine antibody) (antibody, V domains shown)
VH: EVQLVESGGGLVKPGGSRKLSCAASGFTFSDYGMHWVRQAPEKGLEWVAYISSGSSALYYADTVKGRFTISRDNVKNTLFLQMTSLRSEDTAMYYCARRSYYSYFAYWGQGTLVTVSA
VL: QIVLTQSPALMAASPGEKVTITCRVSSSISSSTLHWYQQKSETSPKPWIYGTSNLASGVPVRFSGSGSGTSYSLTISSMEAEDAATYYCQQWSSFPFTFGSGTKLEIK
notes: as for B3
B6: 64A10 (anti-human PTK7 murine antibody) (antibody, V domains shown)
VH: B2 VH
VL: DIQMTQSPATLSVTPGDRVSLSCRASQSISDYLHWYQQKSQESPRLLIKYASQSISGIPSRFSGSGSGSDFTLSINSVEPEDVGVYYCQNGHSFPPTFGGGTKLEIK
notes: as for B3
B7: 4E12 (anti-human PTK7 murine antibody) (antibody, V domains shown)
VH: QVQLQQSGAELMRPGVSVKISCKGSGYTFTDYAMHWVKQNHAKSLEWIGVISTYYGNVSYNQKFKGKATMTVDKSSSTAYMELARLTSEDSAIYYCARGFAYWGQGTLVTVSA
VL: DIVITQDELSNLVTSGESVSISCRSSKSLQKKDGKTYLNWFLQRPGQSPQLLIYLMSTRASGVSDRFSGSGSGTDFTLEISRVKAEDVGVYYCQQLVEYPFTFGSGTKLEIK
notes: as for B3
B8: 4B12 (anti-human PTK7 murine antibody) (antibody, V domains shown)
VH: QVTLKESGPGILKPAQTLSLTCSFSGFSLSTSGMGVGWIRQPSGKGLEWLAHIWWDDDKHYNPSLKSRLTISKDASRNQVFLRISSVDTADTATYYCVRSNYGYDWFAYWGQGTLVTVSA
VL: DIKMTQSPSSMYVSLGERVTITCKASQDINTYLGWFQQKPGKSPKTLIYRANRLVDGVPSRFSGSGSGQDYSLTISSLEYEDMEIYYCLQYDEFPLTFGAGTKLEIK
notes: as for B3
B9: 19C2 (anti-human PTK7 murine antibody) (antibody, V domains shown)
VH: QVTLKESGPGILKPSQTLSLTCSFSGFSLTTSGMGINWIRQPSGKGLEWLALIWWDDDKYYNPSLKNRLTVSKDPSRNQVFLTITSVDTTDSATYYCARSLITTAPSDYWGQGTSVTVSS
VL: DIVMTQSQKFMSTSVGDRVSITCKASQNVGTAITWYQQRPGQSPQLLIYSASNRYTGVPDRFTGSGSGTDFTLTISNLQSEDLADYFCLQYSDYPLTFGAGTNLELK
notes: as for B3

In the first assay the target is T1, human PTK7 protein (extracellular …). The experiment in a line: ELISA, coated human PTK7-His protein 1 µg/ml. As to the method: The original data was imported into software for nonlinear curve fitting, and the EC₅₀ of binding of each antibody to the human PTK7 was calculated, respectively.
(In general: ELISA stands for enzyme-linked immunosorbent assay.)
In the case of B1, the 50% effective concentration (EC50) worked out at 0.0316 µg/mL.
In turn, B2 showed an EC50 of 0.0258 µg/mL.

For a further assay the target is unchanged. As to the kind of experiment: ELISA, coated human PTK7 protein 1 µg/ml. How it is done: (§1) Original data was imported into software for nonlinear curve fitting, and EC₅₀ of binding of each antibody to human PTK7 and monkey PTK7 was calculated, respectively. As shown in Table 1 and FIGS. 1A-1B, the screened antibodies could be bound to the human and monkey PTK7 proteins with affinity higher than that of the control antibody Hu24.
Molecule B3 had a half-maximal effective concentration (EC50) of 0.0131 µg/mL.
Take B4: the half-maximal effective concentration (EC50) stood at 0.0113 µg/mL.
Same read-out and setting: the figure for B5 is 0.0218 µg/mL; for B6 it is 0.0132 µg/mL.

In a further assay the target is T2, human PTK7 on cells (tumor cells …). As to the kind of experiment: flow cytometry on H1299 cells endogenously expressing PTK7.
Molecule B3 showed a concentration giving a half-maximal response (EC50) of 0.245 µg/mL.
In turn, B4 gave a half-maximal effective concentration (EC50) of 0.21 µg/mL.
On the same count and under the same terms, with B5 the figure was 0.0875 µg/mL.

A further assay addresses T3, monkey PTK7 protein (extracellular …). As to the kind of experiment: ELISA, coated monkey PTK7 protein 1 µg/ml. As to the method:
as §1
Molecule B3 yielded an EC50 of 0.0187 µg/mL.
Still for that read-out and setting: the figure for B4 is 0.0168 µg/mL; for B5 it is 0.0158 µg/mL; for B6 it is 0.00765 µg/mL.

A further assay has as its target T2, human PTK7 on cells (tumor cells …). The experiment in a line: flow cytometry on H358 cells endogenously expressing PTK7. In general terms: Flow cytometry measures light scatter and fluorescence of single cells or particles in a stream.
B7: the EC50 turned out to be 0.035 µg/mL.
Consider B8, for which the response was half-maximal at 0.0441 µg/mL (EC50).
In turn, B9 had an EC50 of 0.0583 µg/mL.

For another assay the target is unchanged. As to the kind of experiment: flow cytometry on H1299 cells. From the text:
A flow cytometer (Beckman, Cytoflex) was used for detecting the affinity of the anti-human PTK7 chimeric and humanized antibodies with human non-small cell lung cancer cells H1299, human lung adenocarcinoma cells H1975, human breast cancer cells T47D, human ovarian cancer cells OVCAR-3 (all purchased from NANJING COBIOER BIOSCIENCES CO., LTD) and CHO-hPTK7 overexpression cells.
The adherent cells were digested by using a pancreatin (Gibco) solution; a proper amount of cells were counted and taken, washed twice by using 1×PBS, and re-suspended in a 1% BSA solution; and then the cells were transferred into a 96-well deep plate at a density of 50 μl/well; a candidate antibody was diluted by using 1% BSA, then 50 μl of diluted antibody was added into the deep plate containing the cells, and incubated for 40 min at 4° C.; the cells were washed twice by using PBS, then 50 μl of diluted secondary antibody was added into each well, uniformly mixed, and incubated for 30 min at 4° C.; and the cells were washed twice by using PBS, then re-suspended in 400 μl of PBS, and subjected to examination by flow cytometer.
B1 yielded an EC50 of 0.158 µg/mL.
B2: the midpoint of the response, the EC50, lay at 0.355 µg/mL.

For orientation: EC50 means the concentration needed to bring the measured effect to its halfway point.
